How the values were obtained:
Details in all cases: both partners purified
[1] = target: T1, JNK1 kinase (residues 1–364 of human JNK1 (isoform α1) with a C-terminal 6xHis tag) (human, UniProt P45983 1-364); assay: NMR 15N CEST + ITC; on-rate worked out from the off-rate of CEST (5 °C) and the dissociation constant of ITC (20 °C)
T1 construct: Human JNK1 (c-Jun N-terminal kinase 1), isoform α1, residues 1-364; source: expressed and purified as described previously [34,35]

[2] = target: T1, JNK1 kinase (residues 1–364 of human …); assay: NMR 15N CEST; 250 μM 15N MKK4 with 10% molar ratio of JNK1; 5 °C; 50 mM HEPES pH 7.1, 150 mM NaCl, 2 mM DTT, 5% glycerol; two-site exchange model (ChemEx)
[3] = target: T2, p38α kinase (residues 1–360 of human p38α) (human, UniProt Q16539 1-360); assay: NMR 15N CEST and CPMG relaxation dispersion + ITC; on-rate worked out from the off-rate of the NMR exchange analysis and the dissociation constant of ITC (ITC of ref. 35)
T2 construct: source: expressed and purified as described previously [34,35]
T2 sequence (Q16539 whole entry, the tested form may be a part): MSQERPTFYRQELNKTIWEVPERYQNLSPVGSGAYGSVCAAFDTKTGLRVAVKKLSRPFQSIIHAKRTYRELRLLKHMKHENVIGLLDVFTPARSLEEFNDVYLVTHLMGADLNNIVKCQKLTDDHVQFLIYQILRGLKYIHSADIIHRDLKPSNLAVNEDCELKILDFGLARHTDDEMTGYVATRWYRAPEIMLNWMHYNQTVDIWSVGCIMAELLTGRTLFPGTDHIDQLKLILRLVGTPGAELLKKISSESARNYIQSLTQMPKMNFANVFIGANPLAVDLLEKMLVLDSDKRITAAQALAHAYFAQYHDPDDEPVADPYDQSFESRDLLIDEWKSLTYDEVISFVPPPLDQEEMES

[4] = target: T2, p38α kinase (residues 1–360 of human …); assay: NMR 15N CEST and CPMG relaxation dispersion; 247 μM 15N MKK4 with 6% molar ratio of p38α; data acquired previously [35], analysed here with a two-site exchange model
[5] = target: T1, JNK1 kinase (residues 1–364 of human …); assay: ITC; MKK4 (570 μM, with thioredoxin and 6xHis tag) titrated into JNK1 (42 μM); 20 °C; 50 mM HEPES pH 8.2, 150 mM NaCl, 10% glycerol, 0.5 mM TCEP; model of n identical and independent sites

T1 sequence (P45983 1-364): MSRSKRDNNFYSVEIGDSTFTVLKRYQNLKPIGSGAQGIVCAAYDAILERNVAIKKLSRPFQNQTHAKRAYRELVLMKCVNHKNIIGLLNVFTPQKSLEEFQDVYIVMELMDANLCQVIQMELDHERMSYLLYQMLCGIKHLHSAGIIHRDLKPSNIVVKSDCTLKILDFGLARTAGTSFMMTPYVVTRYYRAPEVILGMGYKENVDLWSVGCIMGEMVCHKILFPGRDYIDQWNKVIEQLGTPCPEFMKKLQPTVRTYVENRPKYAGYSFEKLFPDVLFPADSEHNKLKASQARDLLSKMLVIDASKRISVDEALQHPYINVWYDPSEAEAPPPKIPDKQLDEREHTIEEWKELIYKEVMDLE

B1: regulatory domain of MKK4 (residues 12–86 of human MKK4), 15N-labeled, for NMR (domain or fragment, UniProt P45985 12-86, looked up)
chain: SGGGSGSGTPGPVGSPAPGHPAVSSMQGKRKALKLNFANPPFKSTARFTLNPNPTGVQNPHIERLRTHSIESSGK
notes: Uniformly 15N-labeled for NMR; also called intrinsically disordered regulatory domain of MKK4; source: expressed and purified as described previously [34,35]
B1 was tested, and the kon [1] was 6.95e+07 M⁻¹ s⁻¹, the koff [2] was 90 s⁻¹ and the “population of the bound state (10% molar ratio of JNK1)” value [2] was 8.7 ± 0.1%. For the same binder, the kon [3] was 5.01e+07 M⁻¹ s⁻¹, the koff [4] was 205 s⁻¹ and the “population of the bound state (6% molar ratio of p38α)” value [4] was 6.2 ± 0.1%.

B2: regulatory domain of MKK4 (residues 12–86) with N-terminal thioredoxin and 6xHis tag, unlabeled, for ITC (domain or fragment, human, UniProt P45985 12-86, looked up)
chain: B1 chain
notes: source: expressed and purified as described previously [34,35]; size-exclusion chromatography in the ITC buffer; not shown: thioredoxin, N-terminal, kept; His6, N-terminal, kept
For B2, the Kd [5] was 1300 nM and the “stoichiometry N” value [5] was 1.

From paper PMC8391806, “Enthalpy–Entropy Compensation in the Promiscuous Interaction of an Intrinsically Disordered Protein with Homologous Protein Partners” (Biomolecules, 2021)
